Measured values reported in article PMC3448610, “Characterization of Molecular Determinants of the Conformational Stability of Macrophage Migration Inhibitory Factor: Leucine 46 Hydrophobic Pocket” (PLoS ONE, 2012).

B1: L46A human Macrophage Migration Inhibitory Factor (natural protein, UniProt P14174 1-115, looked up)
chain: MPMFIVNTNVPRASVPDGFLSELTQQLAQATGKPPQYIAVHVVPDQAMAFGGSSEPCALCSLHSIGKIGGAQNRSYSKLLCGLLAERLRISPDRVYINYYDMNAANVGWNNSTFA
notes: initiator methionine cleaved, measured mass 12303 g/mol; numbers count on: the mature protein starting at Pro-1 (without the initiator methionine); No tag is named; also called L46A huMIF; L46A MIF; source: more than 95% pure
B2: L46F human Macrophage Migration Inhibitory Factor (natural protein, UniProt P14174 1-115, looked up)
chain: MPMFIVNTNVPRASVPDGFLSELTQQLAQATGKPPQYIAVHVVPDQFMAFGGSSEPCALCSLHSIGKIGGAQNRSYSKLLCGLLAERLRISPDRVYINYYDMNAANVGWNNSTFA
notes: initiator methionine cleaved, measured mass 12379 g/mol; numbers count on: the mature protein starting at Pro-1 (without the initiator methionine); No tag is named; also called L46F huMIF; L46F MIF; source: more than 95% pure
B3: L46G human Macrophage Migration Inhibitory Factor (natural protein, UniProt P14174 1-115, looked up)
chain: MPMFIVNTNVPRASVPDGFLSELTQQLAQATGKPPQYIAVHVVPDQGMAFGGSSEPCALCSLHSIGKIGGAQNRSYSKLLCGLLAERLRISPDRVYINYYDMNAANVGWNNSTFA
notes: initiator methionine cleaved, measured mass 12289 g/mol; numbers count on: the mature protein starting at Pro-1 (without the initiator methionine); No tag is named; also called L46G huMIF; L46G MIF; source: more than 95% pure

Molecular target: the molecule itself
Test: AUC; sedimentation velocity, 50,000 rpm, 20°C, PBS 1X pH 7.4, protein 5-50 µM (15 µM in Figure 3); c(s) analysis with SEDFIT; oligomeric state of the protein with itself

Protein	stoichiometry N
B1	3
B2	3
B3	3
